From PMC10569748
“And” between values parts separate entries of the source, which are not always exact repeats. Identical values can stand only once.

How the values were obtained:
His = experiment: kinetics; details: free enzyme; cited from earlier work
Cys = experiment: kinetics; details: free enzyme; cited from earlier work
Cys25 [1] = biological target: T1, Cys25 (UniProt position 147, GQCGSCWAFSA); experiment: chemical modification; details: 25 °C (general statement for all assays); ligand-free enzyme
His162 [2] = biological target: T2, His162 (UniProt position 284, SEQLDHGVLLV); experiment: kinetics; details: free enzyme (kcat/Km profile)
Cys25 [3] = biological target: T1, Cys25; experiment: kinetics; details: 25 °C; 0.1 (constant); free enzyme (kcat/Km profile)
His162 [4] = biological target: T2, His162; experiment: NMR; details: Cys25 covalently modified by K11777; cited from earlier work
Cys25 [5] = biological target: Cys25 (UniProt position 158, GSCGSCWAFSA); experiment: chemical modification; details: free enzyme; cited from earlier work
His159 = His159 (UniProt position 292, GNKVDHAVAAV); experiment: chemical modification; details: free enzyme; cited from earlier work
[6] = tested on: Cc1cc(=O)oc2cc(NC(=O)[C@H](CCCNC(=N)N)NC(=O)[C@H](Cc3ccccc3)NC(=O)OCc3ccccc3)ccc12; experiment: purified protein; details: pH 7.5, 25 °C, 2% DMSO, 5 mM DTT, 1 mM CHAPS, 1 mM EDTA
[7] = tested on: Cc1cc(=O)oc2cc(NC(=O)[C@H](CCCNC(=N)N)NC(=O)[C@H](CCCNC(=N)N)NC(=O)OCc3ccccc3)ccc12; experiment: purified protein; details: pH 7.5, 25 °C, 2% DMSO, 5 mM DTT, 1 mM CHAPS, 1 mM EDTA
[8] = tested on: Cc1cc(=O)oc2cc(NC(=O)[C@H](C)NC(=O)[C@H](CCCNC(=N)N)NC(=O)OCc3ccccc3)ccc12; experiment: purified protein; details: pH 7.5, 25 °C, 2% DMSO, 5 mM DTT, 1 mM CHAPS, 1 mM EDTA

With “Cathepsin C (dipeptidyl peptidase I) (Homo sapiens)” as the substance, how does the pKa (His) read?
Its pKa is 6.5.

And the pKa (Cys)?
Its pKa is 4.3.

What does the source list for “Cruzain (cruzipain catalytic domain) (Trypanosoma cruzi)”?
pKa (Cys25 [1]): 9.76 ± 0.04; pKa (His162 [2]; 25 °C, 0.1 (constant), sticky substrate): 6.2 ± 0.4 and 6.0 ± 0.1; pKa (His162 [2]; 25 °C): 6.2 ± 0.1; pKa (His162 [2]; 40 °C): 5.9 ± 0.1; pKa (Cys25 [3]): 9.6 ± 0.1

For “Cruzain covalently complexed with K11777 (Trypanosoma cruzi)”, which pKa (His162 [4]) is on record?
Its pKa is 5.2–5.3.

Which results are given for Papain (Carica papaya)?
pKa (Cys25 [5]): 4.0; pKa (His159): 8.4

Which Km [6] does the source give for cruzain (Trypanosoma cruzi) here?
The Km was 0.62 ± 0.02 µM.

And the kcat [6]?
The kcat was 17 ± 2 s⁻¹.

And the kcat/Km [6]?
Its kcat/Km is 2.7e+07 ± 4e+06 M⁻¹ s⁻¹.

What about the Km [7] of the same substance?
The Km was 3.7 ± 0.4 µM.

What about the kcat [7] of the same substance?
Its kcat is 7.2 ± 0.1 s⁻¹.

And the kcat/Km [7]?
The kcat/Km was 1.9e+06 ± 200000 M⁻¹ s⁻¹.

And the Km [8]?
Its Km is 38 ± 2 µM.

What about the kcat [8] of the same substance?
The kcat was 0.89 ± 0.06 s⁻¹.

And the kcat/Km [8]?
The kcat/Km was 23000 ± 3000 M⁻¹ s⁻¹.
